T1: human prolactin receptor (PRLR), cell surface-expressed (human, UniProt P16471 25-622)
T1 sequence: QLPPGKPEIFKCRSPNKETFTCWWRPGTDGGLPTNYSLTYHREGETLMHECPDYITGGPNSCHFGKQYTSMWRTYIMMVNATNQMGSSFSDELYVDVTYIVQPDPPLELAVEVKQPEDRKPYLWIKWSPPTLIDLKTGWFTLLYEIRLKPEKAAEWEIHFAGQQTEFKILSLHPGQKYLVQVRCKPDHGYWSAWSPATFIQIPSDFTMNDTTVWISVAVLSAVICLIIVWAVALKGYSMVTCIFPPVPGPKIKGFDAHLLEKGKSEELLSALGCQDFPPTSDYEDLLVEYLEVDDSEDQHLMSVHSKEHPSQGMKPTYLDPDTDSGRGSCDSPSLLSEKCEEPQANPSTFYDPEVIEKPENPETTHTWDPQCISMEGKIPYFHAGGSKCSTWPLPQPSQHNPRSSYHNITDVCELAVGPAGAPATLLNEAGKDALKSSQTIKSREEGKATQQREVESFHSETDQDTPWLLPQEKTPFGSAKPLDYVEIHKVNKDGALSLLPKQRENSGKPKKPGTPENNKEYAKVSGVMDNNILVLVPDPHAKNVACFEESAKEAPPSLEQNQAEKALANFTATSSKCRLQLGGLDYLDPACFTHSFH

T2: IL-6R (human, UniProt P08887 20-468)
T2 construct: whole, on cells
T2 sequence (looked up): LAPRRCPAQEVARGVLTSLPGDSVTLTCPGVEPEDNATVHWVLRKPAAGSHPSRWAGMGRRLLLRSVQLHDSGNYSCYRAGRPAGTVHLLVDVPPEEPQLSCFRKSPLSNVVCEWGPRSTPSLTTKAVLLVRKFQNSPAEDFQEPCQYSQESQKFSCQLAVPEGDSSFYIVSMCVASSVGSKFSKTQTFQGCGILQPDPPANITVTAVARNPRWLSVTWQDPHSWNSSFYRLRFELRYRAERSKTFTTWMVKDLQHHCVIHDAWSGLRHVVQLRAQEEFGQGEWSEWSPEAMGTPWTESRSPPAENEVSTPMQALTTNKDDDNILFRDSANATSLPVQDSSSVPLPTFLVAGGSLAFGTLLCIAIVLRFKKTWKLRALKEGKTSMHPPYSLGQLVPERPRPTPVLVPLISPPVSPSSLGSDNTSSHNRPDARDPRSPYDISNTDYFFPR


Experiments:
[1] = target: T1, human prolactin receptor (PRLR), cell …; assay: cell-based or functional assay
[2] = target: T1, human prolactin receptor (PRLR), cell …; assay: cell-based or functional assay; remark: listed apart in the source
[3] = target: T1, human prolactin receptor (PRLR), cell …; assay: cell-based or functional assay; remark: listed apart in the source
[4] = target: T1, human prolactin receptor (PRLR), cell …; assay: cell-based or functional assay; remark: listed apart in the source
[5] = target: T2, IL-6R; assay: FACS on KG-1 cells (endogenous IL-6R), PE anti-human secondary, MFI above isotype control

| MFI fold over background [5] [fold over background] | Binder | IC50, cell viability, MCF7/PRLR cells [1] [nM] | IC50, cell viability, MCF/PRLR + ErbB2 cells [1] [nM] | IC50, cell viability, NCI-N87/PRLR cells [1] [nM] | IC50, cell viability, PC3/PRLR cells [2] [nM] | IC50, cell viability, MCF7 cells [3] [nM] | IC50, cell viability, T47D cells [3] [nM] | IC50, cell viability, T47D/ErbB2 cells [3] [nM] | IC50, cell viability, 293/PRLR cells [4] [nM] |
| --- | --- | --- | --- | --- | --- | --- | --- | --- | --- |
| – | H1H6953N-SMCC-DM1 (antibody, human IgG1, V domains shown, DM1 conjugated through an SMCC linker; attachment residues not stated) VH: EVQLLESGGGLVQPGGTLRLSCAASGFTFSAYAMSWVRQAPGKGLEWVSSINVRAGDTYYADSVKGRFTISRDNSKNTLFLLMNSLRAEDTAAYYCAKARYSSNWGFDFWGQGTLVTVSS VL: DIVMTQSPDSLTVSLGARTTINCQSSQTILHSSNNHNYLAWYQQKPGLPPKLLIYWSSTRESGVPDRFSGSGSGTDFTLTISSLQAEDVAIYYCQQYSNTPYTFGQGTKLEIN | 0.33 | 0.33 | 2.9 | 0.68 | 82 | 1.3 | 2.4 | 0.43 |
| 7 | VV6A9-5 (antibody, V domains shown) VH: EVQLVESGGGLVQPGRSLRLSCAASGFTFDDYALHWVRQAPGKGLEWVSGVSWNGGRIGYADSVKGRFTISRDNAKNSLFLQMNSLRVEDTALYYCAKGRDAFDIWGQGTLVTVSS VL: DIQMTQSPSSVSASVGDRVTITCRASQGISSWLAWYQQKPGKAPKLLIYAASSLQSGVPSRFSGSGSGTDFTLTISSLQPEDFATYYCQHAYSFPYTFGQGTKLEIK | – | – | – | – | – | – | – | – |

Reference: US20150056222A1 (Regeneron, published 2015)
